The record followed here is article PMC5641120 (Oncotarget, 2017).

The target of this assay is human PD-1 (residues 33–150, Cys93 exchanged to serine) (human, UniProt Q15116 33-150, Cys93 exchanged to serine, uniform 15N labelling). Briefly: NMR titration; 1H-15N HMQC, 300K; AIDA: 15N-labeled PD-1 (0.2 mM) slightly overtitrated with unlabeled PD-L1; for the mutants also NMR-monitored direct titration; PBS pH 7.4 (PD-L1) or 25 mM sodium phosphate, 100 mM NaCl pH 6.4 (PD-1). As to conditions: both partners purified.
human PD-1 (residues 33–150, Cys93 exchanged to serine), sequence (Q15116 other isoform, or with tags, fused parts or gaps Cys93 exchanged to serine | Cys93 exchanged to serine): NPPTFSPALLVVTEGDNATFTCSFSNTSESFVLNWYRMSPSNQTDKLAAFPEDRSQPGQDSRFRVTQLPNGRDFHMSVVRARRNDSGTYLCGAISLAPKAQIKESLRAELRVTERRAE

B1: human PD-L1 (residues 18–134, C-terminal His-tag) (domain or fragment)
chain: AFTVTVPKDLYVVEYGSNMTIECKFPVEKQLDLAALIVYWEMEDKNIIQFVHGEEDLKVQHSSYRQRARLLKDQLSLGNAALQITDVKLQDAGVYRCMISYGGADYKRITVKVNAPY
modifications: NTA-Atto 647 N fluorescent dye on the His-tag (flow cytometry only); uniform 15N labelling (NMR titration with compounds only)
notes: PD-L1, human, residues 18-134 (Ig-like V-type domain); also called sPD-L1; soluble PD-L1; source: expressed and purified as described previously [26]; 15N labelling in M9 minimal medium; not shown: His-tag, C-terminal, kept
Consider B1, for which the binding result was “binds”.
